Test results taken from paper doi:10.1101/431288 (bioRxiv, 2018).

Molecular target: the molecule itself
Experiment: cryo-EM structure

B1: human butyrylcholinesterase (HuBChE), native glycosylated enzyme purified from plasma (enzyme, UniProt P06276 29-602, looked up)
chain: EDDIIIATKNGKVRGMNLTVFGGTVTAFLGIPYAQPPLGRLRFKKPQSLTKWSDIWNATKYANSCCQNIDQSFPGFHGSEMWNPNTDLSEDCLYLNVWIPAPKPKNATVLIWIYGGGFQTGTSSLHVYDGKFLARVERVIVVSMNYRVGALGFLALPGNPEAPGNMGLFDQQLALQWVQKNIAAFGGNPKSVTLFGESAGAASVSLHLLSPGSHSLFTRAILQSGSFNAPWAVTSLYEARNRTLNLAKLTGCSRENETEIIKCLRNKDPQEILLNEAFVVPYGTPLSVNFGPTVDGDFLTDMPDILLELGQFKKTQILVGVNKDEGTAFLVYGAPGFSKDNNSIITRKEFQEGLKIFFPGVSEFGKESILFHYTDWVDDQRPENYREALGDVVGDYNFICPALEFTKKFSEWGNNAFFYYFEHRSSKLPWPEWMGVMHGYEIEFVFGLPLERRDNYTKAEEILSRSIVKRWANFAKYGNPNETQNNSTSWPVFKSTEQKYLTLNTESTRIMTKLRAQQCRFWTSFFPKVLEMTGNIDEAEWEWKAGFHRWNNYMMDWKNQFNDYTSKKESCVGL
notes: also called native BChE tetramer
- stoichiometry N: 4
